Data: publication PMC12746075, “Twinfilin modulates tissue contractility through uncapping of capping protein in C. elegans” (Development (Cambridge, England), 2025)

Target: T1, biotinylated SNAP-tagged C. elegans heterodimeric capping protein (CAP-1 and CAP-2) (C. elegans, UniProt P34685 1-282; P34686 1-270, biotin (benzylguanine-biotin on the SNAP tag; subunit that carries the tag not stated) | biotin (benzylguanine-biotin on the SNAP tag; subunit that carries the tag not stated))
T1 construct: CAP-1, capping protein subunit of C. elegans; CAP-2, capping protein subunit of C. elegans; only one SNAP tag is meant for the heterodimer; also called CP; SNAP-CP; source: E. coli BL21 DE3, purified (HisTrap, size-exclusion chromatography Superose 6), labeled with benzylguanine-biotin; not shown: His tag (from the HisTrap chromatography)
T1 sequence (looked up) 1: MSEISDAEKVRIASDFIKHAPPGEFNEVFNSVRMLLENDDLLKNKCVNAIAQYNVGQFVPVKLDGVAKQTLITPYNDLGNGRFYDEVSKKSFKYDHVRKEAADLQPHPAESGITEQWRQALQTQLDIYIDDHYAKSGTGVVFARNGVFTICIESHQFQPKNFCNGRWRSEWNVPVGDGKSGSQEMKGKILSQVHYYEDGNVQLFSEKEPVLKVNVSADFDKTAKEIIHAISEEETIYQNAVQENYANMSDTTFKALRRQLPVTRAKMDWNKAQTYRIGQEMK
T1 sequence (looked up) 2: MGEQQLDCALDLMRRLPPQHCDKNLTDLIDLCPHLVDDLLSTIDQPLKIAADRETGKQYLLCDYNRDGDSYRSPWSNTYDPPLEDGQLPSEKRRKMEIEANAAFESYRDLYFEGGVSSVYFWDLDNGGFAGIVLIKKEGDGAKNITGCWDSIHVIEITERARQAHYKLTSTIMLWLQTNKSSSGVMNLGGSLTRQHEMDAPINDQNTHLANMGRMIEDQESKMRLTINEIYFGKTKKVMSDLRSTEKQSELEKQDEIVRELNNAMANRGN
Test: microfluidics-assisted TIRF microscopy (filament capture and uncapping); biotinylated SNAP-CP anchored to the coverslip surface, preformed Alexa-488-labeled ADP-actin filaments captured; filament detachment monitored in TIRF buffer (10 mM imidazole pH 7.4, 50 mM KCl, 1 mM MgCl2, 1 mM EGTA, 0.2 mM ATP, 10 mM DTT) with and without TWF-2; single-exponential fit
Conditions: both partners purified

B1: C. elegans TWF-2 (6×His-tagged), recombinant (natural protein, UniProt Q20173 1-333, looked up)
chain: MACQTGIRANAALRNALNLGKQAKLRLIKIVVNNEEMTPNYEFAGTANWRDDWRACLPDCVDAYEPCFILFRLNTITEWVLITFVDDRAPVREKMLLAATCATFKSEFGQCYIEHEKHVTDLKDLTLNAFEAWLKAKTELGPMSEVERELHNAQQERAAIAHAGPQHMKGVAFPVDRNAEEALRQLASQKLSFVQLSVDTLNEAIKLEGTLESLEPSQLASKVPRDKPRYTFYNFDHTWEGVPQQCTLFIYSLPSSGSSIKERMLYSSCKGPFLSAAQNQYGVVITNKMEVDARDDLSEKALLEVIHPLPVEAPKQFSRPAPPRAGPRRITKV
notes: TWF-2, the sole twinfilin of C. elegans, recombinant; also called twinfilin; source: E. coli BL21 (pRare), purified (Ni-NTA, size-exclusion chromatography Superdex 75 Increase)
For B1, the “fold acceleration of uncapping of CP from barbed ends (against buffer)” value was over 90 fold.
